Source: the Human Domainome abundance scans (Beltran et al. 2025)

B1: Spectrin alpha chain, erythrocytic 1, residues 979 to 1036; numbered along this chain, P02549 (parent)
chain: EQRVMALYDFQARSPREVTMKKGDVLTLLSSINKDWWKVEAADHQGIVPAVYVRRLAH

Variants of: B1
Assay: abundance fitness (aPCA) (normalised: wild type 0, dead -1); higher = more abundant; growth selection in yeast, the domain comes from the species named
Details: Homo sapiens

Abundance fitness: each site, then its substitutions
G46: E -0.023 | L -0.227 | V -1.03 | K -0.459 | S -1.04 | C -0.361 | W -0.452 | R -0.58 | Y -0.897
A41: V -0.633 | Q -0.287 | Y -0.448 | I -0.482 | N -0.024 | G 0.154 | S 0.232 | R 0.049 | K 0.033 | T 0.043 | E -0.851 | L -0.208 | C 0.001
E40: K 0.29 | D -0.388 | G -0.217 | S -0.187 | R 0.217 | Q 0.188 | T -0.222 | M -0.125 | V -0.573 | P -0.744 | A 0.243 | L -0.652
V39: S -0.886 | W -0.564 | R -0.852 | E -0.332 | K -0.742 | G -0.705 | P -0.319 | F -0.658
H44: W -0.483 | C -0.016 | Q 0.119 | A -0.051 | T -0.107 | V -0.156 | P -0.95 | S 0.03 | M -0.039 | L -0.692 | Y -0.804 | G 0.292 | K 0.555
P49: T -0.477 | G -0.44 | L -0.887 | Q -0.898 | V -0.797 | S -0.497 | W -0.792 | N -0.694 | K -0.47 | Y -0.72 | A -0.932 | E -0.854
L56: M -0.029 | P -0.45 | V -0.207 | S -0.006 | Q -0.848 | C -0.169 | I -0.021 | R -0.874 | K -0.417 | T -0.448 | A -0.882 | W -0.982
K34: R -0.168 | T 0.023 | M -0.514 | H 0.231 | V -0.741 | P -0.015 | Q -0.229 | L 0.207
A50: W -0.879 | P -0.847 | C -0.512 | V -0.79 | D -0.872 | M -0.823 | G -0.967 | S 0.011 | R 0.04 | L -0.844
W37: D -0.644 | L 0.323 | I 0.405 | G -0.596 | A -0.848 | V 0.367 | C -0.386 | M -0.12 | R -0.267
Y52: A 0.089 | L -0.284 | F -0.367 | V -0.682 | P -0.075 | H -0.368 | S 0.155 | K -0.528 | R -0.53 | G -0.659 | T -0.678 | M -0.045 | W -0.978 | E -0.165
A42: S -0.133 | H -0.031 | N 0.315 | Q -0.021 | L 0.178 | C -0.197 | G 0.455 | F -0.002 | T -0.503 | R -0.243 | E -0.089 | P -0.223
V53: P -0.579 | C 0.039 | T -0.872 | A -0.766 | W -0.634 | L 0.13 | S -0.819
W36: K -0.675 | E 0.664 | V -0.554 | D -0.582 | G -0.778 | R -0.894
D43: G 0.567 | Q 0.413 | V -0.537 | H 0.129 | I -0.387 | A -0.314 | P -0.552 | L -0.876 | S 0.096 | N -0.105 | W -0.622 | R -0.708 | T -0.223
Q45: G -0.754 | K 0.09 | R -0.037 | L -0.713 | C -0.103 | W -0.889 | P -0.565 | I 0.027 | E 0.039
